Laboratory results published in publication PMC9355564, “A network of cytosolic (co)chaperones promotes the biogenesis of mitochondrial signal-anchored outer membrane proteins” (eLife, 2022).
Ends that are not written are not given here.

B1: GST-Tom70(46-617) (domain or fragment, S. cerevisiae, UniProt P07213 46-617, looked up)
chain: KDEKKDTKDSQKETEGAKKSTAPSNPPIYPVSSNGEPDFSNKANFTAEEKDKYALALKDKGNQFFRNKKYDDAIKYYNWALELKEDPVFYSNLSACYVSVGDLKKVVEMSTKALELKPDYSKVLLRRASANEGLGKFADAMFDLSVLSLNGDFNDASIEPMLERNLNKQAMSKLKEKFGDIDTATATPTELSTQPAKERKDKQENLPSVTSMASFFGIFKPELTFANYDESNEADKELMNGLSNLYKRSPESYDKADESFTKAARLFEEQLDKNNEDEKLKEKLAISLEHTGIFKFLKNDPLGAHEDIKKAIELFPRVNSYIYMALIMADRNDSTEYYNYFDKALKLDSNNSSVYYHRGQMNFILQNYDQAGKDFDKAKELDPENIFPYIQLACLAYRENKFDDCETLFSEAKRKFPEAPEVPNFFAEILTDKNDFDKALKQYDLAIELENKLDGIYVGIAPLVGKATLLTRNPTVENFIEATNLLEKASKLDPRSEQAKIGLAQMKLQQEDIDEAITLFEESADLARTMEEKLQAITFAEAAKVQQRIRSDPVLAKKIQETLAKLREQGLM
notes: Tom70, cytosolic domain, residues 46-617; also called cytosolic domain of Tom70; source: expressed and purified as described earlier (Papić et al., 2013); not shown: GST, N-terminal, kept
B2: TAMRA-labeled Tom70 peptide, residues 1-32 (peptide, UniProt P07213 1-32, looked up)
peptide: MKSFITRNKTAILATVAATGTAIGAYYYYNQL
modifications: also: TAMRA label, position not given here
notes: Tom70, residues 1-32, contain the transmembrane segment; synthesis as in Jores et al., 2016; also called Tom70(TMS); TMS-labelled peptide of Tom70; source: synthetic peptide
B3: Mcr1-3HA (full length) (natural protein, S. cerevisiae, UniProt P36060 1-302, looked up)
chain: MFSRLSRSHSKALPIALGTVAIAAATAFYFANRNQHSFVFNESNKVFKGDDKWIDLPISKIEEESHDTRRFTFKLPTEDSEMGLVLASALFAKFVTPKGSNVVRPYTPVSDLSQKGHFQLVVKHYEGGKMTSHLFGLKPNDTVSFKGPIMKWKWQPNQFKSITLLGAGTGINPLYQLAHHIVENPNDKTKVNLLYGNKTPQDILLRKELDALKEKYPDKFNVTYFVDDKQDDQDFDGEISFISKDFIQEHVPGPKESTHLFVCGPPPFMNAYSGEKKSPKDQGELIGILNNLGYSKDQVFKF
notes: Mcr1, S. cerevisiae, signal-anchored mitochondrial outer membrane protein (Mcr1mom is its outer membrane isoform); also called Mcr1-FL; yk-Mcr1-3HA; source: in vitro translated in yeast extract; not shown: 3HA, C-terminal, kept
B4: TAMRA-labeled Mcr1 peptide, residues 1-39 (peptide, UniProt P36060 1-39, looked up)
peptide: MFSRLSRSHSKALPIALGTVAIAAATAFYFANRNQHSFV
modifications: also: TAMRA label, position not given here
notes: Mcr1, residues 1-39, contain the transmembrane segment; synthesis as in Jores et al., 2016; also called Mcr1(TMS); Mcr1-TMS peptide; source: synthetic peptide

Assays:
Ssa1-Mcr1(TMS) complex = target: T1, Ssa1-Mcr1(TMS) complex (S. cerevisiae, UniProt P10591 1-642; P36060 1-39, Tetramethylrhodamine (TAMRA), position not stated); assay: fluorescence polarisation; fluorescence anisotropy, 2 µM TAMRA-labeled peptide, 30 °C; single additions of 10 µM Ssa1, 30 µM Sis1, 10 µM GST-Tom70, GST, BSA or 1 mM ATP alone or in the indicated order; conditions: both partners purified
T1 construct: Ssa1, as m37; Mcr1 residues 1-39, as m36; also called substrate-chaperone complex; Ssa1/substrate complex; source: formed beforehand by adding 10 µM recombinant Ssa1 to 2 µM TAMRA-labeled Mcr1 peptide
T1 sequence (P10591 whole entry, the tested form may be a part, one chain of several): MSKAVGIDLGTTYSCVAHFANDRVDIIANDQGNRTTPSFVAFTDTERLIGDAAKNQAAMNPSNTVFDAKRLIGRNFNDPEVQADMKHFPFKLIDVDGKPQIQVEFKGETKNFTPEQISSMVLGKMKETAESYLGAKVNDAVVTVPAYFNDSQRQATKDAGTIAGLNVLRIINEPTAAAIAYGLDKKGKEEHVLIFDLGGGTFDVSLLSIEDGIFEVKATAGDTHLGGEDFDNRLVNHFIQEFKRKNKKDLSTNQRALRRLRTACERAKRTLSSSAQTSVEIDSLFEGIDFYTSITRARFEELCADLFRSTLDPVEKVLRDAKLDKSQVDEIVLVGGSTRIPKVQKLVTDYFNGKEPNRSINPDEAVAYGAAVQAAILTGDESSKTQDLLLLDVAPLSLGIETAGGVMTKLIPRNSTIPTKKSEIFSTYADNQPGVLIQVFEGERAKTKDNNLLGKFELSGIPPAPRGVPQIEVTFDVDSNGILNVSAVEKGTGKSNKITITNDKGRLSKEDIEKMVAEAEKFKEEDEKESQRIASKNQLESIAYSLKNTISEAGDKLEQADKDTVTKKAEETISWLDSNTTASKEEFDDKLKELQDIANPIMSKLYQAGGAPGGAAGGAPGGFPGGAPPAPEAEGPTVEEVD

recombinant Ssa1 = target: T2, recombinant Ssa1 (S. cerevisiae, UniProt P10591 1-642); assay: fluorescence polarisation; fluorescence anisotropy titration, 2 µM TAMRA-labeled peptide with increasing concentrations of Ssa1 or Sis1, 30 °C; Kd from hyperbolic regression of the difference in anisotropy; conditions: both partners purified
T2 construct: Ssa1, yeast cytosolic Hsp70 chaperone; also called Hsp70 Ssa1; source: recombinantly expressed and purified
T2 sequence (P10591 whole entry): as the sequence (P10591 whole entry, the tested form may be a part, one chain of several) above

recombinant Sis1 = target: T3, recombinant Sis1 (S. cerevisiae, UniProt P25294 1-352); assay: as above; conditions: both partners purified
T3 construct: Sis1, yeast Hsp40 co-chaperone; also called Hsp40 co-chaperone Sis1; source: recombinantly expressed and purified
T3 sequence (looked up): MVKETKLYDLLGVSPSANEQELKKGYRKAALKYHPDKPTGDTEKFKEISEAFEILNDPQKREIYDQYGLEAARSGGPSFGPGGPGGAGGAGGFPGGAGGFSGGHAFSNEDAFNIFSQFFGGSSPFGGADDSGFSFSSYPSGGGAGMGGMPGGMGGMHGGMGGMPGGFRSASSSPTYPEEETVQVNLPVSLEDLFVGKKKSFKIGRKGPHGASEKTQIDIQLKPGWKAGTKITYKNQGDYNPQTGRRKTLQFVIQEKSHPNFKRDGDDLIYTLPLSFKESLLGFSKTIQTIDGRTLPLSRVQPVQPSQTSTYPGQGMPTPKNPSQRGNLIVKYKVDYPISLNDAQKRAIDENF

GST-Tom20(35-183) = target: T4, GST-Tom20(35-183) (S. cerevisiae, UniProt P35180 35-183); assay: pull-down; purified GST, GST-Tom20 or GST-Tom70 on glutathione sepharose beads blocked with 5% BSA, mixed with cleared in vitro translation reactions (yeast extract) of HA-tagged proteins; ATP added every 30 min; 20 mM Hepes, 100 mM NaCl, 1 mM MgCl2, pH 7.25; anti-HA blot; conditions: one partner purified
T4 construct: also called cytosolic domain of Tom20; source: expressed and purified as described earlier (Papić et al., 2013); not shown: GST, N-terminal, kept
T4 sequence (looked up): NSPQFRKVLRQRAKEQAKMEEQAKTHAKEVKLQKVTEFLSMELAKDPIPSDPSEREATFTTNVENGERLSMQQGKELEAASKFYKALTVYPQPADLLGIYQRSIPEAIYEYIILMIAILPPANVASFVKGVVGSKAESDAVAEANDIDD

GST-Tom70(46-617) = target: B1; assay: fluorescence polarisation; fluorescence anisotropy, 2 µM TAMRA-labeled peptide, 30 °C; single additions of 10 µM Ssa1, 30 µM Sis1, 10 µM GST-Tom70, GST, BSA or 1 mM ATP alone or in the indicated order; conditions: both partners purified

B1: binds (Ssa1-Mcr1(TMS) complex).

In the case of B2, the Kd (recombinant Ssa1) is reported as 2420 nM and the Kd (recombinant Sis1) is reported as 18.3 µM.

For B3, the “fold binding to GST-Tom20 relative to GST-Tom70 (after normalising to GST)” value (GST-Tom20(35-183)) was 4 fold.

B4 was tested, and the binding result (GST-Tom70(46-617)) was “binds”, the Kd (recombinant Ssa1) was 3270 nM and the Kd (recombinant Sis1) was 25.8 µM.
